Assay results reported in patent US5821227A, “Modulators of cytokines of the tgf β superfamily” (Mount Sinai Hospital Corporation, priority 1995, dated 1998).
Like-named read-outs stand apart in the source and are kept apart here.

Legend:
TGF-β2 = target: T1, TGF-β2 (Homo sapiens, UniProt P61812); test: BIAcore surface plasmon resonance binding to TGF-β2; details: ligand TGF-β2; for Kd: KD = kdiss/kass; for kass: ± standard error of linear regression
T1 sequence (P61812 303-414 limits assumed): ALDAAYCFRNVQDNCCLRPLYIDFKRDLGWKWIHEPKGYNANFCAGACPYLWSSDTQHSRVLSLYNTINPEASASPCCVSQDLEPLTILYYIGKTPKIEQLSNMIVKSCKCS
Protocol: (§1) In this system, a purified protein serving as the ligand is covalently coupled to a carboxymethylated dextran surface, and binding molecules (ie. the analyte) are passed in a fluid phase across the surface. Binding of the analyte to ligand causes a change in reflected light which is directly proportional to mass bound, and is measured in arbitrary response units (R.U.). Analyte-ligand binding is observed as both increasing response with time during the injection of analyte, and the difference in the position of the baseline before and after injection.
(§2) Schuster, R. V. Swanson, L. A. Alex, R. B. Bourret, M. I. Simon, Nature 365, 343 (1993). 1000 R.U. equals approximately 1 ng/mm^2. The running buffer was 20 mM Hepes (pH7.2), 150 mM NaCl and the flow rate for all sensorgrams was 3 μl/min. Injection volumes were 36 μl for FIG. 2, 4 and 5 and 45 μl for FIG. 3. […] Protein concentrations in each experiment were (FIGS. 2 and 3), 2, 5, 10, 20, 30, 40 μM; (FIG. 4), 0.21, 0.31, 0.41, 0.62, 0.82, 1.24 μM; (FIG. 5), 0.22, 0.29, 0.44, 0.59, 0.88 μM. R.U. for the immobilized cytokine in each experiment was 2850 R.U. for FIGS. 2 and 3; 7450 R.U. for FIG. 4, and 5300 R.U., for FIG. 5 respectively.
(§3) Data was analyzed using the BIA-evaluation software (Pharmacia Biosensor). The association rate constant, kass, was calculated by first plotting the change in response with time versus response (ie. dR/dT vs R). When the slope of the line from this graph is plotted versus analyte concentration (i.e d(dR/dT)/dR vs C), kass is obtained from the slope of the line. The dissociation rate constant, kdiss, is obtained during the decrease in response with time after analyte injection is discontinued. Specifically, kdiss was obtained from the slope of the line in a plot of ln(Rt1 /Rtn) vs time. The affinity constants were calculated from KD =kdiss /kass. Variance for kass is standard error of the linear regression plot, and for kdiss values are the mean±range of 3 or more independent injections.

TGF-β1 [1] = target: T2, TGF-β1 (Homo sapiens, UniProt P01137); test: Mv1Lu growth inhibition assay: neutralization of the antiproliferative activity of TGF-β1 (3H-thymidine incorporation); format: cell-based; details: Mv1Lu cells; for IC50 / Maximal effect, percent neutralization: TGF-β1 12 pM; for IC50: 3H-thymidine incorporation, read-out: half-maximal inhibition (IC50) of the anti-proliferative activity of TGF-β1; for Maximal effect, percent neutralization: 0% = TGF-β1 alone, 100% = no additions
T2 construct: purchased Collaborative Research (Bedford, Mass.)
T2 sequence (P01137 279-390 limits assumed): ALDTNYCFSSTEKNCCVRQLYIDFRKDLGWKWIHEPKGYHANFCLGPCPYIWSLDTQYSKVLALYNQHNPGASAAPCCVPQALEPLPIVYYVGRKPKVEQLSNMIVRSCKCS
Protocol: Mv1Lu cells were seeded at 20,000 cells/well in a 96 well plate containing 0.2% FCS in α-MEM and incubated with the indicated concentrations of proteins for 18 hr. […] Before use, bovine thyroglobulin was spun twice in a centricon (M.W. cutoff of 10,000 Da) micro-concentrator (Amicon, Beverly, Mass.) to remove any excess Iodine and T3/T4 thyroid hormones.

TGF-β1 [2] = target: T2, TGF-β1; test: BIAcore surface plasmon resonance binding to immobilized TGF-β1; details: for binding to immobilized TGF-β1 (in words): BIAcore sensorgram
Protocol: as §1, §2, §3

BMP-4 = target: T3, BMP-4 (Homo sapiens, UniProt P12644); test: BIAcore surface plasmon resonance binding to immobilized BMP-4; details: ligand BMP-4; for Kd: KD = kdiss/kass
T3 sequence (P12644 293-408): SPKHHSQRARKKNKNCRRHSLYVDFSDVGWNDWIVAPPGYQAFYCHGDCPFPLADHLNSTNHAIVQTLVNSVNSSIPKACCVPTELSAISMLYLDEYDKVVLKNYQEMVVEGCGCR
Protocol: as §1, §2, §3

BMP-2 = target: T4, BMP-2 (Homo sapiens, UniProt P12643); test: BIAcore surface plasmon resonance binding to immobilized BMP-2; details: for Kd: ligand BMP-2, KD = kdiss/kass; for kdiss / kass: ligand BMP-2 immobilized; for kass: ± standard error of linear regression
T4 construct: purchased Genetics Institute, Cambridge, Mass; (a gift, not bought)
T4 sequence (P12643 283-396): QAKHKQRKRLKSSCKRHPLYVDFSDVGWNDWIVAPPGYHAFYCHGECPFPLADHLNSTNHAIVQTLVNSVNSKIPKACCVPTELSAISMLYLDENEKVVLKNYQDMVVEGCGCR
Protocol: as §1, §2, §3

BMP-6 = target: T5, BMP-6 (Homo sapiens, UniProt P22004); test: BIAcore surface plasmon resonance binding to immobilized BMP-6; details: ligand BMP-6
T5 sequence (P22004 375-513): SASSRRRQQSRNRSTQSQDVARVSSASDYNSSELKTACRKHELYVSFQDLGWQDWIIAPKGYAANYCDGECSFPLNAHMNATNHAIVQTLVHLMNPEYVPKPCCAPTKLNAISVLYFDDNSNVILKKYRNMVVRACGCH
Protocol: as §1, §2, §3

[3] = ligand TGF-β1, KD = kdiss/kass, read-out: KD
[4] = ligand TGF-β1 immobilized, ± standard error of linear regression
[5] = ± standard error of linear regression

Row | Molecule | kdiss (TGF-β2) [s⁻¹] | Kd (TGF-β2) [µM] | kass (TGF-β2) [M⁻¹ s⁻¹] | IC50 (TGF-β1 [1]) [µM] | Maximal effect, percent neutralization (TGF-β1 [1]) | Kd (TGF-β1 [2]; [3]) [µM] | kdiss (dissociation rate) (TGF-β1 [2]; ligand TGF-β1 immobilized) [s⁻¹] | kass (association rate) (TGF-β1 [2]; [4]) [M⁻¹ s⁻¹] | kdiss (BMP-4) [s⁻¹] | Kd (BMP-4) [µM] | Kd (BMP-2) [µM] | kdiss (BMP-2) [s⁻¹] | kass (BMP-2) [M⁻¹ s⁻¹] | binding to immobilized TGF-β1 (in words) (TGF-β1 [2]) | further results
1 | Thyroglobulin: Bovine thyroglobulin purchased from Sigma, containing the TRH1 domain | 0.005 | 3.8 | 1300 ± 600 | 0.22 | approximately 150% | 0.68 | 0.0019 | 2800 ± 1000 | 0.0011 | 0.02 | 0.0031 | 0.0001 | 32000 ± 2000 | – | IC50 for inhibition of TGF-β1 activity, fold lower than for fetuin (TGF-β1 [1]): 20 fold; kass (BMP-4; [5]): 54000 ± 7000 M⁻¹ s⁻¹
2 | CC[C@H](C)[C@@H]1NC(=O)[C@H](CC(N)=O)NC(=O)[C@H](CCC(=O)O)NC(=O)[C@H](CC(=O)O)NC(=O)[C@H](CC(N)=O)NC(=O)[C@H](CCCCN)NC(=O)[C@H](CCCNC(=N)N)NC(=O)[C@H](Cc2c[nH]c3ccccc23)NC(=O)[C@H](C(C)C)NC(=O)[C@H](C)NC(=O)[C@H](C(C)C)NC(=O)[C@@H](N)CSSC[C@@H](C(=O)N[C@@H](Cc2c[nH]cn2)C(=O)N[C@@H](CC(=O)O)C(=O)O)NC(=O)[C@H](C(C)C)NC(=O)[C@H]([C@@H](C)O)NC(=O)[C@H](CCC(=O)O)NC(=O)[C@H](CC(C)C)NC(=O)[C@H]([C@@H](C)O)NC1=O [TRH1b (TβRII)] | – | – | – | – | – | – | – | – | – | – | – | – | – | – | koff (TGF-β1 [2]; ligand TGF-β1 immobilized, read-out: kdiss (dissociation rate)): 0.0019 s⁻¹; kon (TGF-β1 [2]; ligand TGF-β1 immobilized, ± standard error of linear regression, read-out: kass (association rate)): 3700 M⁻¹ s⁻¹
3 | reduced and alkylated fetuin: Fetuin, reduced and alkylated, compared to native fetuin | – | – | – | – | – | – | – | – | – | – | – | – | – | diminished binding | binding to immobilized BMP-2 (in words) (BMP-2; BIAcore sensorgram): diminished binding
4 | Fetuin: Bovine fetuin, glycoprotein from fetal calf serum (ammonium sulfate fractionation, gel filtration), purchased from Sigma | 0.0032 | 5.8 | 550 ± 120 | 4.2 | approximately 150% | – | 0.0016 | 670 ± 400 | 0.00058 | 0.14 | 0.036 | 6.2e-05 | 1700 ± 300 | – | Kd (TGF-β1 [2]; ligand TGF-β1, steady-state, read-out: KD, Scatchard type analysis for steady-state binding): 4.6 µM; kdiss (BMP-2; listed as fetuin): 6.2e-05 s⁻¹; kass (BMP-2; listed as fetuin): 1700 M⁻¹ s⁻¹; kdiss (BMP-6): 0.0025 s⁻¹; Kd (BMP-6; KD = kdiss/kass): 0.86 µM; kass (BMP-6; [5]): 2900 ± 500 M⁻¹ s⁻¹

Further lines, with some results ahead:

Row | kdiss (TGF-β2) [s⁻¹] | Kd (TGF-β2) [µM] | kass (TGF-β2) [M⁻¹ s⁻¹] | IC50 (TGF-β1 [1]) [µM] | Maximal effect, percent neutralization (TGF-β1 [1]) | Kd (TGF-β1 [2]; [3]) [µM] | kdiss (dissociation rate) (TGF-β1 [2]; ligand TGF-β1 immobilized) [s⁻¹] | kass (association rate) (TGF-β1 [2]; [4]) [M⁻¹ s⁻¹] | kdiss (BMP-4) [s⁻¹] | Kd (BMP-4) [µM] | Kd (BMP-2) [µM] | kdiss (BMP-2) [s⁻¹] | kass (BMP-2) [M⁻¹ s⁻¹] | binding to immobilized TGF-β1 (in words) (TGF-β1 [2]) | Molecule | further results
5 | – | – | – | – | – | – | – | – | – | – | – | – | – | non-binding | human transferrin: Non-binding control passed over immobilized TGF-β1 [reference compound] | –
6 | – | – | – | – | – | > 10 | – | – | – | – | – | – | – | – | CC[C@H](C)[C@H](NC(=O)[C@H](CC(N)=O)NC(=O)[C@H](CCC(=O)O)NC(=O)[C@H](CC(=O)O)NC(=O)[C@H](CC(N)=O)NC(=O)[C@H](CCCCN)NC(=O)[C@H](CCCNC(=N)N)NC(=O)[C@H](Cc1c[nH]c2ccccc12)NC(=O)[C@@H](NC(=O)[C@H](C)NC(=O)[C@@H](NC(=O)[C@@H](N)CSCC(N)=O)C(C)C)C(C)C)C(=O)N[C@H](C(=O)N[C@@H](CC(C)C)C(=O)N[C@@H](CCC(=O)O)C(=O)N[C@H](C(=O)N[C@H](C(=O)N[C@@H](CSCC(N)=O)C(=O)N[C@@H](Cc1c[nH]cn1)C(=O)N[C@@H](CC(=O)O)C(=O)O)C(C)C)[C@@H](C)O)[C@@H](C)O [TRH1b (TβRII) (reduced & alkylated)] | –
